Key:
[1] = biological target: T1, p34^cdc2 cell cycle regulatory kinase (Homo sapiens (Human), UniProt P06493); experiment: IC50 column of Table 1 (ELISA based competition, competitor plate-bound p107 30mer)
[2] = biological target: T1, p34^cdc2 cell cycle regulatory kinase; experiment: IC50 column of Table 1 (ELISA based competition on p107 30mer-coated plate)

Row | Binder | IC50 [1] [µM] | binding result [2]
1 | LCAKYIMAK [p107 9mer peptide 715FK] | > 100 | no binding (tested: >100 µM)
2 | YIMAK [p107 N5mer peptide] | > 100 | no binding (tested: >100 µM)
3 | LCAAYIMAK [p107 9mer peptide 715FA] | > 100 | no binding (tested: >100 µM)
4 | LCAFYKMAK [p107 9mer peptide 717IK] | > 100 | no binding (tested: >100 µM)

From patent US5625031, “Peptide inhibitors of the p33^cdk2 and p34^cdc2 cell cycle regulatory kinases and human papillomavirus E7 oncoprotein” (Bristol-Myers Squibb Company, dated 1997)
